# Ends that are not written are not given here. * marks the point of attachment. C16 diacid = O=C(O)CCCCCCCCCCCCCCC(=O)*
# T1: human GIP receptor (human, UniProt P48546 22-466)
# T1 sequence (looked up): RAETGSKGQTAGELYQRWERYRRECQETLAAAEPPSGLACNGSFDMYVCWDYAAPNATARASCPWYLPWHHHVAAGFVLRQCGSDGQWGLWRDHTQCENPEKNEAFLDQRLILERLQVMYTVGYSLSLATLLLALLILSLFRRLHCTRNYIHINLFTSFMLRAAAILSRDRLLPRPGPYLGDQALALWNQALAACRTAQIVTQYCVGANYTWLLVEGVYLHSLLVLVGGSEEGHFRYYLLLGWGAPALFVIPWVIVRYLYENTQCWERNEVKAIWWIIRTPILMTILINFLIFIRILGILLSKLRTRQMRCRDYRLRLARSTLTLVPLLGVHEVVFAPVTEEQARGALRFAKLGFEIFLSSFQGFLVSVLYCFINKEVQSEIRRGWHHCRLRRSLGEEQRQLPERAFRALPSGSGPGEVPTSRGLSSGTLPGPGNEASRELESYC
# B1: AT310 [hGIP(3-30)NH2[D21K]-C16diacid/21] (peptide)
# peptide: EGTFISDYSIAMDKIHQQK(C16 diacid)FVNWLLAQK-NH2
# modifications: N-terminus assumed
# SMILES: CC[C@H](C)[C@H](NC(=O)[C@H](CO)NC(=O)[C@H](Cc1ccc(O)cc1)NC(=O)[C@H](CC(=O)O)NC(=O)[C@H](CO)NC(=O)[C@@H](NC(=O)[C@H](Cc1ccccc1)NC(=O)[C@@H](NC(=O)CNC(=O)[C@@H](N)CCC(=O)O)[C@@H](C)O)[C@@H](C)CC)C(=O)N[C@@H](C)C(=O)N[C@@H](CCSC)C(=O)N[C@@H](CC(=O)O)C(=O)N[C@@H](CCCCN)C(=O)N[C@H](C(=O)N[C@@H](Cc1c[nH]cn1)C(=O)N[C@@H](CCC(N)=O)C(=O)N[C@@H](CCC(N)=O)C(=O)N[C@@H](CCCCNC(=O)CCCCCCCCCCCCCCC(=O)O)C(=O)N[C@@H](Cc1ccccc1)C(=O)N[C@H](C(=O)N[C@@H](CC(N)=O)C(=O)N[C@@H](Cc1c[nH]c2ccccc12)C(=O)N[C@@H](CC(C)C)C(=O)N[C@@H](CC(C)C)C(=O)N[C@@H](C)C(=O)N[C@@H](CCC(N)=O)C(=O)N[C@@H](CCCCN)C(N)=O)C(C)C)[C@@H](C)CC
# B2: AT311 [hGIP(3-30)NH2[F22K]-C16diacid/22] (peptide)
# peptide: EGTFISDYSIAMDKIHQQDK(C16 diacid)VNWLLAQK-NH2
# modifications: N-terminus assumed
# SMILES: CC[C@H](C)[C@H](NC(=O)[C@H](CO)NC(=O)[C@H](Cc1ccc(O)cc1)NC(=O)[C@H](CC(=O)O)NC(=O)[C@H](CO)NC(=O)[C@@H](NC(=O)[C@H](Cc1ccccc1)NC(=O)[C@@H](NC(=O)CNC(=O)[C@@H](N)CCC(=O)O)[C@@H](C)O)[C@@H](C)CC)C(=O)N[C@@H](C)C(=O)N[C@@H](CCSC)C(=O)N[C@@H](CC(=O)O)C(=O)N[C@@H](CCCCN)C(=O)N[C@H](C(=O)N[C@@H](Cc1c[nH]cn1)C(=O)N[C@@H](CCC(N)=O)C(=O)N[C@@H](CCC(N)=O)C(=O)N[C@@H](CC(=O)O)C(=O)N[C@@H](CCCCNC(=O)CCCCCCCCCCCCCCC(=O)O)C(=O)N[C@H](C(=O)N[C@@H](CC(N)=O)C(=O)N[C@@H](Cc1c[nH]c2ccccc12)C(=O)N[C@@H](CC(C)C)C(=O)N[C@@H](CC(C)C)C(=O)N[C@@H](C)C(=O)N[C@@H](CCC(N)=O)C(=O)N[C@@H](CCCCN)C(N)=O)C(C)C)[C@@H](C)CC
# B3: AT309 [hGIP(3-30)NH2[Q20K]-C16diacid/20] (peptide)
# peptide: EGTFISDYSIAMDKIHQK(C16 diacid)DFVNWLLAQK-NH2
# modifications: N-terminus assumed
# SMILES: CC[C@H](C)[C@H](NC(=O)[C@H](CO)NC(=O)[C@H](Cc1ccc(O)cc1)NC(=O)[C@H](CC(=O)O)NC(=O)[C@H](CO)NC(=O)[C@@H](NC(=O)[C@H](Cc1ccccc1)NC(=O)[C@@H](NC(=O)CNC(=O)[C@@H](N)CCC(=O)O)[C@@H](C)O)[C@@H](C)CC)C(=O)N[C@@H](C)C(=O)N[C@@H](CCSC)C(=O)N[C@@H](CC(=O)O)C(=O)N[C@@H](CCCCN)C(=O)N[C@H](C(=O)N[C@@H](Cc1c[nH]cn1)C(=O)N[C@@H](CCC(N)=O)C(=O)N[C@@H](CCCCNC(=O)CCCCCCCCCCCCCCC(=O)O)C(=O)N[C@@H](CC(=O)O)C(=O)N[C@@H](Cc1ccccc1)C(=O)N[C@H](C(=O)N[C@@H](CC(N)=O)C(=O)N[C@@H](Cc1c[nH]c2ccccc12)C(=O)N[C@@H](CC(C)C)C(=O)N[C@@H](CC(C)C)C(=O)N[C@@H](C)C(=O)N[C@@H](CCC(N)=O)C(=O)N[C@@H](CCCCN)C(N)=O)C(C)C)[C@@H](C)CC
# B4: AT312 [hGIP(3-30)NH2[V23K]-C16diacid/23] (peptide)
# peptide: EGTFISDYSIAMDKIHQQDFK(C16 diacid)NWLLAQK-NH2
# modifications: N-terminus assumed
# SMILES: CC[C@H](C)[C@H](NC(=O)[C@H](CO)NC(=O)[C@H](Cc1ccc(O)cc1)NC(=O)[C@H](CC(=O)O)NC(=O)[C@H](CO)NC(=O)[C@@H](NC(=O)[C@H](Cc1ccccc1)NC(=O)[C@@H](NC(=O)CNC(=O)[C@@H](N)CCC(=O)O)[C@@H](C)O)[C@@H](C)CC)C(=O)N[C@@H](C)C(=O)N[C@@H](CCSC)C(=O)N[C@@H](CC(=O)O)C(=O)N[C@@H](CCCCN)C(=O)N[C@H](C(=O)N[C@@H](Cc1c[nH]cn1)C(=O)N[C@@H](CCC(N)=O)C(=O)N[C@@H](CCC(N)=O)C(=O)N[C@@H](CC(=O)O)C(=O)N[C@@H](Cc1ccccc1)C(=O)N[C@@H](CCCCNC(=O)CCCCCCCCCCCCCCC(=O)O)C(=O)N[C@@H](CC(N)=O)C(=O)N[C@@H](Cc1c[nH]c2ccccc12)C(=O)N[C@@H](CC(C)C)C(=O)N[C@@H](CC(C)C)C(=O)N[C@@H](C)C(=O)N[C@@H](CCC(N)=O)C(=O)N[C@@H](CCCCN)C(N)=O)[C@@H](C)CC
# B5: AT315 [hGIP(3-30)NH2[L26K]-C16diacid/26] (peptide)
# peptide: EGTFISDYSIAMDKIHQQDFVNWK(C16 diacid)LAQK-NH2
# modifications: N-terminus assumed
# SMILES: CC[C@H](C)[C@H](NC(=O)[C@H](CO)NC(=O)[C@H](Cc1ccc(O)cc1)NC(=O)[C@H](CC(=O)O)NC(=O)[C@H](CO)NC(=O)[C@@H](NC(=O)[C@H](Cc1ccccc1)NC(=O)[C@@H](NC(=O)CNC(=O)[C@@H](N)CCC(=O)O)[C@@H](C)O)[C@@H](C)CC)C(=O)N[C@@H](C)C(=O)N[C@@H](CCSC)C(=O)N[C@@H](CC(=O)O)C(=O)N[C@@H](CCCCN)C(=O)N[C@H](C(=O)N[C@@H](Cc1c[nH]cn1)C(=O)N[C@@H](CCC(N)=O)C(=O)N[C@@H](CCC(N)=O)C(=O)N[C@@H](CC(=O)O)C(=O)N[C@@H](Cc1ccccc1)C(=O)N[C@H](C(=O)N[C@@H](CC(N)=O)C(=O)N[C@@H](Cc1c[nH]c2ccccc12)C(=O)N[C@@H](CCCCNC(=O)CCCCCCCCCCCCCCC(=O)O)C(=O)N[C@@H](CC(C)C)C(=O)N[C@@H](C)C(=O)N[C@@H](CCC(N)=O)C(=O)N[C@@H](CCCCN)C(N)=O)C(C)C)[C@@H](C)CC
# B6: AT314 [hGIP(3-30)NH2[W25K]-C16diacid/25] (peptide)
# peptide: EGTFISDYSIAMDKIHQQDFVNK(C16 diacid)LLAQK-NH2
# modifications: N-terminus assumed
# SMILES: CC[C@H](C)[C@H](NC(=O)[C@H](CO)NC(=O)[C@H](Cc1ccc(O)cc1)NC(=O)[C@H](CC(=O)O)NC(=O)[C@H](CO)NC(=O)[C@@H](NC(=O)[C@H](Cc1ccccc1)NC(=O)[C@@H](NC(=O)CNC(=O)[C@@H](N)CCC(=O)O)[C@@H](C)O)[C@@H](C)CC)C(=O)N[C@@H](C)C(=O)N[C@@H](CCSC)C(=O)N[C@@H](CC(=O)O)C(=O)N[C@@H](CCCCN)C(=O)N[C@H](C(=O)N[C@@H](Cc1c[nH]cn1)C(=O)N[C@@H](CCC(N)=O)C(=O)N[C@@H](CCC(N)=O)C(=O)N[C@@H](CC(=O)O)C(=O)N[C@@H](Cc1ccccc1)C(=O)N[C@H](C(=O)N[C@@H](CC(N)=O)C(=O)N[C@@H](CCCCNC(=O)CCCCCCCCCCCCCCC(=O)O)C(=O)N[C@@H](CC(C)C)C(=O)N[C@@H](CC(C)C)C(=O)N[C@@H](C)C(=O)N[C@@H](CCC(N)=O)C(=O)N[C@@H](CCCCN)C(N)=O)C(C)C)[C@@H](C)CC
# B7: AT313 [hGIP(3-30)NH2[N24K]-C16diacid/24] (peptide)
# peptide: EGTFISDYSIAMDKIHQQDFVK(C16 diacid)WLLAQK-NH2
# modifications: N-terminus assumed
# SMILES: CC[C@H](C)[C@H](NC(=O)[C@H](CO)NC(=O)[C@H](Cc1ccc(O)cc1)NC(=O)[C@H](CC(=O)O)NC(=O)[C@H](CO)NC(=O)[C@@H](NC(=O)[C@H](Cc1ccccc1)NC(=O)[C@@H](NC(=O)CNC(=O)[C@@H](N)CCC(=O)O)[C@@H](C)O)[C@@H](C)CC)C(=O)N[C@@H](C)C(=O)N[C@@H](CCSC)C(=O)N[C@@H](CC(=O)O)C(=O)N[C@@H](CCCCN)C(=O)N[C@H](C(=O)N[C@@H](Cc1c[nH]cn1)C(=O)N[C@@H](CCC(N)=O)C(=O)N[C@@H](CCC(N)=O)C(=O)N[C@@H](CC(=O)O)C(=O)N[C@@H](Cc1ccccc1)C(=O)N[C@H](C(=O)N[C@@H](CCCCNC(=O)CCCCCCCCCCCCCCC(=O)O)C(=O)N[C@@H](Cc1c[nH]c2ccccc12)C(=O)N[C@@H](CC(C)C)C(=O)N[C@@H](CC(C)C)C(=O)N[C@@H](C)C(=O)N[C@@H](CCC(N)=O)C(=O)N[C@@H](CCCCN)C(N)=O)C(C)C)[C@@H](C)CC
# Target: T1, human GIP receptor
# Test: cell-based or functional assay
Binder,"cAMP agonism, EC50 (log) [log M]","cAMP agonism, Emax [%]","cAMP agonism, nM (EC50) [nM]","cAMP antagonism, log (IC50) [log M]","cAMP antagonism, nM (IC50) [nM]"
B1,-7.4,6.2,39,-7.3,49
B2,-6.1,17.5,784,-6,923
B3,,,,-7.4,36
B4,-5.4,54,4080,,
B5,-6.7,5.9,183,-6.3,556
B6,-7.2,28.4,62,-7,101
B7,-7,7.2,97,-6.5,348
